# Publication PMC12267440, “Human glycogenins maintain glucose homeostasis by regulating glycogen metabolism” (Nature Communications, 2025)
# T1: Homo sapiens glycogen synthase GS2 (GYS2), amino acids 1-703 (human, UniProt P54840 1-703)
# T1 construct: glycogen synthase GS2 (GYS2), Homo sapiens, UniProt P54840, amino acids 1-703; The methods say that the His tag was put at the N-terminus of 'GS' without telling GS1 and GS2 apart; source: baculovirus (Bac-to-Bac), purified with GYG2
# T1 sequence (looked up): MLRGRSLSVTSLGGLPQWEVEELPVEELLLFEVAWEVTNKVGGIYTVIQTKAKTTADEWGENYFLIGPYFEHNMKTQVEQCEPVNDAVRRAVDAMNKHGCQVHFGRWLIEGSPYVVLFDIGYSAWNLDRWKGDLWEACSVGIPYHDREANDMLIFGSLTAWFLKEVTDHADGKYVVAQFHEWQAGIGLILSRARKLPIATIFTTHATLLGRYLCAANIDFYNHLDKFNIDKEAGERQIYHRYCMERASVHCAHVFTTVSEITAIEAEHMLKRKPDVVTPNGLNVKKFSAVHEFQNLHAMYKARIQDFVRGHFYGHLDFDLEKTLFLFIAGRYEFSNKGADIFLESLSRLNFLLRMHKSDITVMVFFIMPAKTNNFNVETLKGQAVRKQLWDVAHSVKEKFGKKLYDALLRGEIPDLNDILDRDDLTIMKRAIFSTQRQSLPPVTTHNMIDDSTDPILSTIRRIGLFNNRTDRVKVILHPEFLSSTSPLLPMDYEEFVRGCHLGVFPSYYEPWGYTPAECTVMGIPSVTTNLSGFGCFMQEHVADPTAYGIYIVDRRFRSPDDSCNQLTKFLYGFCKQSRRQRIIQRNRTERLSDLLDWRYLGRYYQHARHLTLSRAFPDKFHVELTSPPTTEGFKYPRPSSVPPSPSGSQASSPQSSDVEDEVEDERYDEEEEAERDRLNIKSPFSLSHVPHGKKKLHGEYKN
# B1: Homo sapiens glycogen synthase GS1 (GYS1), amino acids 1-737, N-terminal hexahistidine tag (enzyme, human, UniProt P13807 1-737, looked up)
# chain: MPLNRTLSMSSLPGLEDWEDEFDLENAVLFEVAWEVANKVGGIYTVLQTKAKVTGDEWGDNYFLVGPYTEQGVRTQVELLEAPTPALKRTLDSMNSKGCKVYFGRWLIEGGPLVVLLDVGASAWALERWKGELWDTCNIGVPWYDREANDAVLFGFLTTWFLGEFLAQSEEKPHVVAHFHEWLAGVGLCLCRARRLPVATIFTTHATLLGRYLCAGAVDFYNNLENFNVDKEAGERQIYHRYCMERAAAHCAHVFTTVSQITAIEAQHLLKRKPDIVTPNGLNVKKFSAMHEFQNLHAQSKARIQEFVRGHFYGHLDFNLDKTLYFFIAGRYEFSNKGADVFLEALARLNYLLRVNGSEQTVVAFFIMPARTNNFNVETLKGQAVRKQLWDTANTVKEKFGRKLYESLLVGSLPDMNKMLDKEDFTMMKRAIFATQRQSFPPVCTHNMLDDSSDPILTTIRRIGLFNSSADRVKVIFHPEFLSSTSPLLPVDYEEFVRGCHLGVFPSYYEPWGYTPAECTVMGIPSISTNLSGFGCFMEEHIADPSAYGIYILDRRFRSLDDSCSQLTSFLYSFCQQSRRQRIIQRNRTERLSDLLDWKYLGRYYMSARHMALSKAFPEHFTYEPNEADAAQGYRYPRPASVPPSPSLSRHSSPHQSEDEEDPRNGPLEEDGERYDEDEEAAKDRRNIRAPEWPRRASCTSSTSGSKRNSVDTATSSSLSTPSEPLSPTSSLGEERN
# notes: glycogen synthase GS1 (GYS1), Homo sapiens, UniProt P13807, amino acids 1-737; No cleavage of the His tag is described; the complexes were captured on Ni-NTA by it; The cryo-EM complex is called heterooctameric (D2 symmetry imposed); source: Sf9, co-infected with a GYG baculovirus, purified (Ni-NTA, Superose 6); not shown: His6 (PreScission protease-cleavable), N-terminal, kept
# Key:
# [1] = molecular target: B1; experiment: SEC; co-expressed in insect cells, captured on Ni-NTA by the His6 tag of GS, then Superose 6 16/60; SDS-PAGE and Western blot of peak fractions; conditions: both partners purified
# [2] = molecular target: T1, Homo sapiens glycogen synthase GS2 …; experiment: as above; conditions: both partners purified
# [3] = molecular target: the molecule itself; experiment: cryo-EM structure; purified GS•GYG2 complex from SEC peak fractions at ~2 mg/mL; Titan Krios 300 keV; D2 symmetry imposed
Binder,binding result [1],other results
"Homo sapiens wild-type GYG1 (glycogenin-1) (enzyme, human, UniProt P46976-2 1-333, looked up, autoglycosylated (smear on blots; glucose polymer on Y195), glycogenin-1 (GYG1), Homo sapiens, UniProt P46976-2; also called GYG1 (WT); source: Sf9, co-infected with GS baculovirus, purified with GS (Ni-NTA, Superose 6)) MTDQAFVTLTTNDAYAKGALVLGSSLKQHRTTRRLVVLATPQVSDSMRKVLETVFDEVIMVDVLDSGDSAHLTLMKRPELGVTLTKLHCWSLTQYSKCVFMDADTLVLANIDDLFDREELSAAPDPGWPDCFNSGVFVYQPSVETYNQLLHLASEQGSFDGGDQGILNTFFSSWATTDIRKHLPFIYNLSSISIYSYLPAFKVFGASAKVVHFLGRVKPWNYTYDPKTKSVKSEAHDPNMTHPEFLILWWNIFTTNVLPLLQQFGLVKDTCSYVNVEDVSGAISHLSLGEIPAMAQPFVSSEERKERWEQGQADYMGADSFDNIKRKLDTYLQ",binds,
"Homo sapiens GYG1 Y195F mutant (enzyme, human, UniProt P46976-2 1-333, looked up, glycogenin-1 (GYG1), Homo sapiens, UniProt P46976-2, autoglycosylation site mutated; source: Sf9, co-infected with GS baculovirus, purified with GS (Ni-NTA, Superose 6)) MTDQAFVTLTTNDAYAKGALVLGSSLKQHRTTRRLVVLATPQVSDSMRKVLETVFDEVIMVDVLDSGDSAHLTLMKRPELGVTLTKLHCWSLTQYSKCVFMDADTLVLANIDDLFDREELSAAPDPGWPDCFNSGVFVYQPSVETYNQLLHLASEQGSFDGGDQGILNTFFSSWATTDIRKHLPFIYNLSSISIFSYLPAFKVFGASAKVVHFLGRVKPWNYTYDPKTKSVKSEAHDPNMTHPEFLILWWNIFTTNVLPLLQQFGLVKDTCSYVNVEDVSGAISHLSLGEIPAMAQPFVSSEERKERWEQGQADYMGADSFDNIKRKLDTYLQ",binds,
"Homo sapiens wild-type GYG2 (glycogenin-2) (enzyme, human, UniProt O15488-1 1-501, looked up, glycogenin-2 (GYG2), Homo sapiens, UniProt O15488-1, full-length; Two vectors are named (MultiBac pACEBac1 with full-length GYG2; Bac-to-Bac with wild-type GYG2 O15488-1); source: Sf9, co-infected with GS baculovirus, purified with GS (Ni-NTA, Superose 6); also isolated alone) MSETEFHHGAQAGLELLRSSNSPTSASQSAGMTVTDQAFVTLATNDIYCQGALVLGQSLRRHRLTRKLVVLITPQVSSLLRVILSKVFDEVIEVNLIDSADYIHLAFLKRPELGLTLTKLHCWTLTHYSKCVFLDADTLVLSNVDELFDRGEFSAAPDPGWPDCFNSGVFVFQPSLHTHKLLLQHAMEHGSFDGADQGLLNSFFRNWSTTDIHKHLPFIYNLSSNTMYTYSPAFKQFGSSAKVVHFLGSMKPWNYKYNPQSGSVLEQGSASSSQHQAAFLHLWWTVYQNNVLPLYKSVQAGEARASPGHTLCHSDVGGPCADSASGVGEPCENSTPSAGVPCANSPLGSNQPAQGLPEPTQIVDETLSLPEGRRSEDMIACPETETPAVITCDPLSQPSPQPADFTETETILQPANKVESVSSEETFEPSQELPAEALRDPSLQDALEVDLAVSVSQISIEEKVKELSPEEERRKWEEGRIDYMGKDAFARIQEKLDRFLQ",,binding result [2]: binds
"Homo sapiens GYG2 Y228F mutant (enzyme, human, UniProt O15488-1 1-501, looked up, glycogenin-2 (GYG2), Homo sapiens, UniProt O15488-1, putative autoglycosylation site mutated; also called GYG2 Y229F mutant (methods); source: baculovirus (Bac-to-Bac), purified with GS) MSETEFHHGAQAGLELLRSSNSPTSASQSAGMTVTDQAFVTLATNDIYCQGALVLGQSLRRHRLTRKLVVLITPQVSSLLRVILSKVFDEVIEVNLIDSADYIHLAFLKRPELGLTLTKLHCWTLTHYSKCVFLDADTLVLSNVDELFDRGEFSAAPDPGWPDCFNSGVFVFQPSLHTHKLLLQHAMEHGSFDGADQGLLNSFFRNWSTTDIHKHLPFIYNLSSNTMFTYSPAFKQFGSSAKVVHFLGSMKPWNYKYNPQSGSVLEQGSASSSQHQAAFLHLWWTVYQNNVLPLYKSVQAGEARASPGHTLCHSDVGGPCADSASGVGEPCENSTPSAGVPCANSPLGSNQPAQGLPEPTQIVDETLSLPEGRRSEDMIACPETETPAVITCDPLSQPSPQPADFTETETILQPANKVESVSSEETFEPSQELPAEALRDPSLQDALEVDLAVSVSQISIEEKVKELSPEEERRKWEEGRIDYMGKDAFARIQEKLDRFLQ",binds,
B1,,binding result [3]: binds
